Key:
[1] = biological target: T1, VV B5 monomer protein (Wyeth Vaccinia strain B5 with C-terminal AVI tag and HIS6 tag) (Vaccinia virus, Wyeth strain, UniProt O57254 18-279); experiment: ELISA, B5 monomer coated
T1 construct: also called B5 protein; VV B5 protein

[2] = biological target: T2, Western Reserve B5 on cells infected with VVddeGFP Western Reserve virus (Vaccinia virus, Western Reserve strain, UniProt Q01227 18-317); experiment: flow cytometry, HT29 cells infected with WR VV
T2 construct: also called VV B5; WR

[3] = biological target: T2, Western Reserve B5 on cells infected …; experiment: flow cytometry, SKOV3 cells infected with WR VV
[4] = biological target: T3, Copenhagen B5 on cells infected with VVCopenhagen (YFP) virus (Vaccinia virus, Copenhagen strain, UniProt P21115 18-317); experiment: flow cytometry, HT29 cells infected with Copenhagen VV
T3 construct: also called VV B5

[5] = biological target: T1, VV B5 monomer protein (Wyeth Vaccinia …); experiment: BLI (Octet), antibody on AHC sensor, B5 monomer analyte

Binder | EC50 [1] | EC50 [2] | EC50 [3] | EC50 [4] | Kd [5] | koff [5] | kon [5]
A048 parental (antibody, V domains shown, also called A048 rabbit parental antibody; A048 parental anti-B5 hIgG1) VH: QEQLEESGGGLVKPEGSLTLTCTASGFSFSSSYYMCWVRQAPGRGLEWIACIYTSSGSAYYANWAKGRFTISRTSSTTVTLQMTRLTAADTATYFCVRNAVGSSYYLYLWGPGTLVTVSS VL: AQVLTQTPSPVSAAVGGTVTISCQASQSVAGNNYLSWYQQKPGQPPNLLIYSVSTLASGVPSRFKGSGSGTQFTLTISDLECDDAATYYCQGYYNDGIWAFGGGTEVVVK | 0.116 nM | 3.51 nM | 3.98 nM | 1.08 nM | 9.51 nM | 0.000601 s⁻¹ | 62400 M⁻¹ s⁻¹
A048-H3L1 (antibody, V domains shown) VH: EVQLLESGGGLVQPGGSLRLSCAASGFSFSSSYYMCWVRQAPGKGLEWIACIYTSSGSAYYADSVKGRFTISRDNSKNTLYLQMNSLRAEDTAVYYCVRNAVGSSYYLYLWGQGTLVTVSS VL: DIQMTQSPSTLSASVGDRVTITCQASQSVAGNNYLSWYQQKPGKAPKLLIYSVSTLASGVPSRFSGSGSGTEFTLTISSLQPDDFATYYCQGYYNDGIWAFGQGTKVEIK | 0.0854 nM | 0.86 nM | 0.94 nM | 0.89 nM | 4.37 nM | 0.000468 s⁻¹ | 107000 M⁻¹ s⁻¹
A048-H4L1 (antibody, V domains shown) VH: EVQLLESGGGLVQPGGSLRLSCAASGFSFSSSYYMCWVRQAPGKGLEWIACIYTSSGSAYYADSVKGRFTISRTSSTTVTLQMNSLRAEDTAVYYCVRNAVGSSYYLYLWGQGTLVTVSS VL: DIQMTQSPSTLSASVGDRVTITCQASQSVAGNNYLSWYQQKPGKAPKLLIYSVSTLASGVPSRFSGSGSGTEFTLTISSLQPDDFATYYCQGYYNDGIWAFGQGTKVEIK | 0.0953 nM | 2.77 nM | 0.88 nM | 1.34 nM | 6.72 nM | 0.000478 s⁻¹ | 71000 M⁻¹ s⁻¹
A048-H2L1 (antibody, V domains shown) VH: EVQLLESGGGLVQPGGSLRLSCAASGFSFSSSYYMCWVRQAPGKGLEWIACIYTSSGSAYYANWAKGRFTISRTSSTTVTLQMNSLRAEDTAVYYCVRNAVGSSYYLYLWGQGTLVTVSS VL: DIQMTQSPSTLSASVGDRVTITCQASQSVAGNNYLSWYQQKPGKAPKLLIYSVSTLASGVPSRFSGSGSGTEFTLTISSLQPDDFATYYCQGYYNDGIWAFGQGTKVEIK | 0.0969 nM | 1.37 nM | 0.53 nM | 1.48 nM | 7.21 nM | 0.000672 s⁻¹ | 93000 M⁻¹ s⁻¹
A048-H3L4 (antibody, V domains shown) VH: EVQLLESGGGLVQPGGSLRLSCAASGFSFSSSYYMCWVRQAPGKGLEWIACIYTSSGSAYYADSVKGRFTISRDNSKNTLYLQMNSLRAEDTAVYYCVRNAVGSSYYLYLWGQGTLVTVSS VL: AQVLTQSPSSLSASVGDRVTITCQASQSVAGNNYLSWYQQKPGKVPKLLIYSVSTLASGVPSRFSGSGSGTDFTLTISSLQPEDVATYYCQGYYNDGIWAFGQGTKVEIK | 0.106 nM | 3.78 nM | 1.28 nM | 1.96 nM | 8.57 nM | 0.000722 s⁻¹ | 84100 M⁻¹ s⁻¹
A048-H4L4 (antibody, V domains shown) VH: EVQLLESGGGLVQPGGSLRLSCAASGFSFSSSYYMCWVRQAPGKGLEWIACIYTSSGSAYYADSVKGRFTISRTSSTTVTLQMNSLRAEDTAVYYCVRNAVGSSYYLYLWGQGTLVTVSS VL: AQVLTQSPSSLSASVGDRVTITCQASQSVAGNNYLSWYQQKPGKVPKLLIYSVSTLASGVPSRFSGSGSGTDFTLTISSLQPEDVATYYCQGYYNDGIWAFGQGTKVEIK | 0.114 nM | 3.05 nM | 2.36 nM | 1.32 nM | 9.6 nM | 0.000549 s⁻¹ | 57000 M⁻¹ s⁻¹
A048-H3L3 (antibody, V domains shown) VH: EVQLLESGGGLVQPGGSLRLSCAASGFSFSSSYYMCWVRQAPGKGLEWIACIYTSSGSAYYADSVKGRFTISRDNSKNTLYLQMNSLRAEDTAVYYCVRNAVGSSYYLYLWGQGTLVTVSS VL: DIQMTQSPSSLSASVGDRVTITCQASQSVAGNNYLSWYQQKPGKVPKLLIYSVSTLASGVPSRFSGSGSGTDFTLTISSLQPEDVATYYCQGYYNDGIWAFGQGTKVEIK | 0.0979 nM | 1.81 nM | 0.83 nM | 1.03 nM | 7.71 nM | 0.000733 s⁻¹ | 94900 M⁻¹ s⁻¹
A048-H4L3 (antibody, V domains shown) VH: EVQLLESGGGLVQPGGSLRLSCAASGFSFSSSYYMCWVRQAPGKGLEWIACIYTSSGSAYYADSVKGRFTISRTSSTTVTLQMNSLRAEDTAVYYCVRNAVGSSYYLYLWGQGTLVTVSS VL: DIQMTQSPSSLSASVGDRVTITCQASQSVAGNNYLSWYQQKPGKVPKLLIYSVSTLASGVPSRFSGSGSGTDFTLTISSLQPEDVATYYCQGYYNDGIWAFGQGTKVEIK | 0.114 nM | 3.5 nM | 1.37 nM | 1.12 nM | 6.31 nM | 0.000476 s⁻¹ | 75200 M⁻¹ s⁻¹
A048-H4L2 (antibody, V domains shown) VH: EVQLLESGGGLVQPGGSLRLSCAASGFSFSSSYYMCWVRQAPGKGLEWIACIYTSSGSAYYADSVKGRFTISRTSSTTVTLQMNSLRAEDTAVYYCVRNAVGSSYYLYLWGQGTLVTVSS VL: AQVLTQSPSTLSASVGDRVTITCQASQSVAGNNYLSWYQQKPGKAPKLLIYSVSTLASGVPSRFSGSGSGTEFTLTISSLQPDDFATYYCQGYYNDGIWAFGQGTKVEIK | 0.107 nM | 6.59 nM | 0.71 nM | 1.78 nM | 7.69 nM | 0.000481 s⁻¹ | 62400 M⁻¹ s⁻¹
A048-H2L3 (antibody, V domains shown) VH: EVQLLESGGGLVQPGGSLRLSCAASGFSFSSSYYMCWVRQAPGKGLEWIACIYTSSGSAYYANWAKGRFTISRTSSTTVTLQMNSLRAEDTAVYYCVRNAVGSSYYLYLWGQGTLVTVSS VL: DIQMTQSPSSLSASVGDRVTITCQASQSVAGNNYLSWYQQKPGKVPKLLIYSVSTLASGVPSRFSGSGSGTDFTLTISSLQPEDVATYYCQGYYNDGIWAFGQGTKVEIK | 0.0515 nM | 1.73 nM | 0.55 nM | 0.77 nM | 9.23 nM | 0.000759 s⁻¹ | 82100 M⁻¹ s⁻¹
A048-H1L4 (antibody, V domains shown) VH: EVQLLESGGGLVQPGGSLRLSCAASGFSFSSSYYMCWVRQAPGKGLEWIACIYTSSGSAYYANWAKGRFTISRDNSKNTLYLQMNSLRAEDTAVYYCVRNAVGSSYYLYLWGQGTLVTVSS VL: AQVLTQSPSSLSASVGDRVTITCQASQSVAGNNYLSWYQQKPGKVPKLLIYSVSTLASGVPSRFSGSGSGTDFTLTISSLQPEDVATYYCQGYYNDGIWAFGQGTKVEIK | 0.102 nM | 0.68 nM | 0.44 nM | 0.98 nM | 12 nM | 0.000953 s⁻¹ | 79400 M⁻¹ s⁻¹
A048-H1L3 (antibody, V domains shown) VH: EVQLLESGGGLVQPGGSLRLSCAASGFSFSSSYYMCWVRQAPGKGLEWIACIYTSSGSAYYANWAKGRFTISRDNSKNTLYLQMNSLRAEDTAVYYCVRNAVGSSYYLYLWGQGTLVTVSS VL: DIQMTQSPSSLSASVGDRVTITCQASQSVAGNNYLSWYQQKPGKVPKLLIYSVSTLASGVPSRFSGSGSGTDFTLTISSLQPEDVATYYCQGYYNDGIWAFGQGTKVEIK | 0.0802 nM | 3.48 nM | 1.2 nM | 1.88 nM | 8.76 nM | 0.000846 s⁻¹ | 96400 M⁻¹ s⁻¹
A048-H2L4 (antibody, V domains shown) VH: EVQLLESGGGLVQPGGSLRLSCAASGFSFSSSYYMCWVRQAPGKGLEWIACIYTSSGSAYYANWAKGRFTISRTSSTTVTLQMNSLRAEDTAVYYCVRNAVGSSYYLYLWGQGTLVTVSS VL: AQVLTQSPSSLSASVGDRVTITCQASQSVAGNNYLSWYQQKPGKVPKLLIYSVSTLASGVPSRFSGSGSGTDFTLTISSLQPEDVATYYCQGYYNDGIWAFGQGTKVEIK | 0.0844 nM | 1.68 nM | 0.69 nM | 2.85 nM | 6.23 nM | 0.000512 s⁻¹ | 81600 M⁻¹ s⁻¹
A048-H2L2 (antibody, V domains shown) VH: EVQLLESGGGLVQPGGSLRLSCAASGFSFSSSYYMCWVRQAPGKGLEWIACIYTSSGSAYYANWAKGRFTISRTSSTTVTLQMNSLRAEDTAVYYCVRNAVGSSYYLYLWGQGTLVTVSS VL: AQVLTQSPSTLSASVGDRVTITCQASQSVAGNNYLSWYQQKPGKAPKLLIYSVSTLASGVPSRFSGSGSGTEFTLTISSLQPDDFATYYCQGYYNDGIWAFGQGTKVEIK | 0.0914 nM | 1.71 nM | 0.8 nM | 1.28 nM | 7.91 nM | 0.000698 s⁻¹ | 88100 M⁻¹ s⁻¹
A048-H1L2 (antibody, V domains shown) VH: EVQLLESGGGLVQPGGSLRLSCAASGFSFSSSYYMCWVRQAPGKGLEWIACIYTSSGSAYYANWAKGRFTISRDNSKNTLYLQMNSLRAEDTAVYYCVRNAVGSSYYLYLWGQGTLVTVSS VL: AQVLTQSPSTLSASVGDRVTITCQASQSVAGNNYLSWYQQKPGKAPKLLIYSVSTLASGVPSRFSGSGSGTEFTLTISSLQPDDFATYYCQGYYNDGIWAFGQGTKVEIK | 0.0717 nM | 2.2 nM | 0.76 nM | 0.77 nM | 9.71 nM | 0.000764 s⁻¹ | 78600 M⁻¹ s⁻¹

— patent US20240309070A1 (ADMARE THERAPEUTICS SOCIETY, published 2024)
